In patent US12559745B2, “Methods and compositions for linking RNA stem loops” (THE REGENTS OF THE UNIVERSITY OF CALIFORNIA, priority 2020, dated 2026):
Several values for one entry are separate records, joined by “and”; a condition that tells them apart may be missing. Equal entries are not always repeated. Entries after “also recorded” stand apart in the source; their conditions may differ.

Tests used:
[1] = In vitro photo-cleavage (uncaging) assay, LED irradiation followed by denaturing PAGE; format: physicochemical
[2] = test system: 60 bp DNA substrate containing the sgRNA-9 target sequence; experiment: In vitro binding assay, Cas9-sgRNA-DNA ternary complex formation (native PAGE); details: pre-formed RNP plus 20 nM DNA substrate, 37° C., 90 seconds; 5% native TBE-PAGE
[3] = test system: DYRK1A genome locus; experiment: CRISPR-Cas9 gene editing in Cas9-expressing HEK-293 cells, INDEL rate by Sanger sequencing / ICE tool; format: cell-based; details: for gene editing activity (INDEL rate) of unmodified sgRNA: unmodified (linear) sgRNA with Tag sequence(s), transfected into Cas9-expressing HEK-293 cells, compared with wild-type sgRNA
Source text: We asked whether RNA-CLAMP could be used to control CRISPR-Cas9 editing via cyclization of the sgRNA. The sgRNA is highly structured when in complex with dCas9 and target DNA, forming three stem loops and one tetraloop, with some of the stem loops being tolerant to mutations.^[18] A sgRNA contains four stem-loops and two free ends (FIGS. 3A and 3B). We screened the 17-nt Tag recognition sequence (GCAGACUGUAAAUCUGC) (SEQ ID NO:1) at all 6 potential labeling sites within the sgRNA: insertion at the 5′-end (sgRNA-1) or 3′-end (sgRNA-6) and substituting the 17-nt Tag stem loop for either the tetra loop (sgRNA-2), stem loop 1 (sgRNA-3), stem loop 2 (sgRNA-4) or stem loop 3 (sgRNA-5) (FIG. 12). All the sgRNAs target the DYRK1A genome locus.^[32] To screen for activity, we transiently transfected the sgRNAs into HEK-293 cells stably expressing Cas9 protein. Three days after transfection, genomic DNA was harvested and the sgRNA targeted region was amplified by PCR. Sanger sequencing results were analyzed using the ICE tool to determine the INDEL rate, which is representative of the gene editing efficiency of the sgRNA.^[33]
To obtain optimal gene editing efficiency, we examined different Cas9 delivery approaches, including transfection or electroporation of Cas9 vector or mRNA, electroporation of Cas9-sgRNA RNP complex and sequential transfection of Cas9-mRNA and sgRNA. The gene editing efficiency varies from 20% INDEL to 80% INDEL with different delivery strategies. We constructed an engineered mammalian single-colony HEK-293 cell line that stably expresses Cas9 enzyme using the lentiviral approach. To quantify the activity of sgRNA, we delivered sgRNA1 to sgRNA6 into the HEK-293-Cas9 cells using lipofectamine RNAiMAX. One day after transfection, culturing medium was exchanged with fresh full-growth medium (DMEM with 10% FBS). Three days after transfection, genomic DNA was extracted from the cells, following by PCR amplification of the sgRNA targeted region. The PCR amplified DNA fragments were further analyzed by either the T7E1 nuclease digestion assay or by Sanger sequencing to quantify gene knockouts efficiency of the targeted region.^25,26 […]
Gene editing experiments were performed following previously reported protocols.^[2] For gene editing experiments using HEK-293-Cas9 cell line, 250 ng sgRNA and 0.5 μL Lipofectamine RNAiMAX were used to form the Lipo-RNA complex. The formed complex was added with 150 μL DMEM (10% FBS) containing 40K HEK-293-Cas9 cells. The transfection was performed in a 96-well plate format. 24 hours after transfection, cell medium was changed to complete DMEM medium. At day 4, genomic DNA was extracted using 80 μL QuickExtract™ DNA Extraction Solution (Lucigen, catalog number: QE09050). Following the manufacturer's protocol, the extraction solution was heated at 65° C. for 15 minutes and then at 95° C. for another 15 minutes. The resulting solution was diluted using water at a 1:10 ratio. The diluted product was directly used as a template for PCR amplification of the genomic region. For PCR amplification of the genomic region, Q5 HOTSTART HIFI DNA polymerase 2× master mix was used following the manufacturer's protocol without further optimization. The primers used for amplifying the DYRK1A and GRIN2B genome locus are listed below.
Crude PCR products were column purified using a Zymo DNA purification kit. The purified PCR amplicon was analyzed by Sanger sequencing to estimate INDEL % using the ICE tool.^[3] The wt-sgRNA gene editing INDEL % was usually around 70-80% following this protocol.

[4] = test system: HEK-293 cells; experiment: Gene editing in HEK-293 wild-type cell line with Cas9 mRNA transfected one day before sgRNA; format: cell-based; details: HEK-293 wild-type cells, Cas9 mRNA transfection; usual value
Method: For gene editing experiments performed using a HEK-293 wild-type cell line, mRNA encoding the Cas9 protein (Trilink, catalog number L-7206-20) was transfected into HEK-293 cells one day prior to sgRNA transfection. For mRNA transfection, Lipo-RNA complex was formed by using 500 ng mRNA, 0.9 μL Lipofectamine RNAiMAX in 50 μL total volume, combined with 150 μL DMEM complete medium containing 40K HEK-293 cells. At day 2, sgRNA transfection was performed following the protocol described in the previous section. The wt-sgRNA gene editing INDEL % was usually around 40-50% following this protocol.

[5] = biological target: T1, Cas9 protein (Streptococcus pyogenes serotype M1, UniProt Q99ZW2); experiment: In vitro binding assay, Cas9-sgRNA RNP formation (gel shift, native PAGE); details: 200 nM Cas9, 200 nM sgRNA
T1 construct: purchased NEB M0646T

CCN(CC)c1ccc2c(C(CCCn3cc(COCCC(=O)NCCCCCCNCc4c[nH]c5nc(N)[nH]c(=O)c45)nn3)OC(=O)NCCCCCCNCc3c[nH]c4nc(N)[nH]c(=O)c34)cc(=O)oc2c1 (stereo not drawn) [preQ1-DEACM-preQ1]
wavelength of light that photo-cleaves the linker [1]: 405-456 nm

COc1cc(C(C)OC(=O)NCCCCCCNCc2c[nH]c3nc(N)[nH]c(=O)c23)c([N+](=O)[O-])cc1OCCCC(=O)NCCOCCOCCOCCOCc1cn(CC(=O)NCCCCCCNCc2c[nH]c3nc(N)[nH]c(=O)c23)nn1 (stereo not drawn) [preQ1-NB-preQ1]
wavelength of light that photo-cleaves the linker [1]: 356-390 nm and 390 nm

sgRNA-12: sgRNA targeting the sequence between the mCherry and GFP genes of the surrogate reporter, SEQ ID NO:40 (guide GTTCAGGGCTTGACCAACAC; listed as DNA, chemistry not fully specified)
formation of Cas9-sgRNA-DNA ternary complex [2]: no Cas9-sgRNA-DNA complex was observed

B1: sgRNA-4: sgRNA with 17-nt Tag stem loop substituted for stem loop 2, SEQ ID NO:12 (nucleic acid)
guide: NNNNNNNNNNNNNNNNNNNNGTTTTAGAGCTAGAAATAGCAAGTTAAAATAAGGCTAGTCCGTTATCAACTTGCAGACTGTAAATCTGCAAGTGGCACCGAGTCGGTGC
modifications: listed as DNA, chemistry not given here
gene editing activity (INDEL rate) of unmodified sgRNA [3]: wild-type level gene editing activity; also recorded: retained wild-type level activity

B2: sgRNA-7: sgRNA with two Tag sequences inserted at both the tetraloop and stem loop 2, SEQ ID NO:15 (nucleic acid)
guide: NNNNNNNNNNNNNNNNNNNNGTTTTAGAGCTAGCAGACTGTAAATCTGCTAGCAAGTTAAAATAAGGCTAGTCCGTTATCAACTTGCAGACTGTAAATCTGCAAGTGGCACCGAGTCGGTGC
modifications: listed as DNA, chemistry not given here
INDELs ([3]; HEK-293 cells, clamped with preQ1-PEG10-preQ1 and gel purified, versus unmodified (linear) form): 80.7% | gene editing activity (INDEL rate) of unmodified sgRNA [3]: wild-type level gene editing activity; also recorded: did not compromise gene editing activity | integrity of unlabeled sgRNA under 456 nm irradiation ([1]; 456 nm LED, 3 minutes): harmless to the integrity

B3: sgRNA-1: sgRNA with 17-nt Tag inserted at the 5′-end, SEQ ID NO:9 (nucleic acid)
guide: GCAGACTGTAAATCTGCTTTTNNNNNNNNNNNNNNNNNNNNGTTTTAGAGCTAGAAATAGCAAGTTAAAATAAGGCTAGTCCGTTATCAACTTGAAAAAGTGGCACCGAGTCGGTGC
modifications: listed as DNA, chemistry not given here
gene editing activity (INDEL rate) of unmodified sgRNA [3]: significantly reduced activity

B4: sgRNA-2: sgRNA with 17-nt Tag stem loop substituted for the tetra loop, SEQ ID NO:10 (nucleic acid)
guide: NNNNNNNNNNNNNNNNNNNNGTTTTAGAGCTAGCAGACTGTAAATCTGCTAGCAAGTTAAAATAAGGCTAGTCCGTTATCAACTTGAAAAAGTGGCACCGAGTCGGTGC
modifications: listed as DNA, chemistry not given here
gene editing activity (INDEL rate) of unmodified sgRNA [3]: wild-type level gene editing activity; also recorded: retained wild-type level activity

B5: sgRNA-3: sgRNA with 17-nt Tag stem loop substituted for stem loop 1, SEQ ID NO:11 (nucleic acid)
guide: NNNNNNNNNNNNNNNNNNNNGTTTTAGAGCTAGAAATAGCAAGTTAAAATAAGGCGCAGACTGTAAATCTGCGTCCGTTATCAACTTGAAAAAGTGGCACCGAGTCGGTGC
modifications: listed as DNA, chemistry not given here
gene editing activity (INDEL rate) of unmodified sgRNA [3]: significantly reduced activity

B6: sgRNA-5: sgRNA with 17-nt Tag stem loop substituted for stem loop 3, SEQ ID NO:13 (nucleic acid)
guide: NNNNNNNNNNNNNNNNNNNNGTTTTAGAGCTAGAAATAGCAAGTTAAAATAAGGCTAGTCCGTTATCAACTTGAAAAAGTGGCACCGAGCAGACTGTAAATCTGCTCGGTGC
modifications: listed as DNA, chemistry not given here
gene editing activity (INDEL rate) of unmodified sgRNA [3]: significantly reduced activity

B7: wt-sgRNA: wild-type single-guide RNA, SEQ ID NO:8 (nucleic acid)
guide: CTAATACGACTCACTATANNNNNNNNNNNNNNNNNNNNGTTTTAGAGCTAGAAATAGCAAGTTAAAATAAGGCTAGTCCGTTATCAACTTGAAAAAGTGGCACCGAGTCGGTGCTTTTTT
modifications: target site or template, no part of the molecule; listed as DNA, chemistry not given here
gene editing INDEL % ([3]; HEK-293-Cas9 cell line protocol, usual value): 70-80% | gene editing INDEL % [4]: 40-50%

B8: sgRNA-9: sgRNA-7 with Tag stems truncated by 4 base pairs, SEQ ID NO:17; targets DYRK1A (nucleic acid)
guide: NNNNNNNNNNNNNNNNNNNNGTTTTAGAGCTAACTGTAAATTAGCAAGTTAAAATAAGGCTAGTCCGTTATCAACTTACTGTAAATAAGTGGCACCGAGTCGGTGC
modifications: chemistry not given here
notes: targets DYRK1A
formation of Cas9-sgRNA RNP [5]: observed; also recorded: detected in lane 4 | formation of Cas9-sgRNA-DNA ternary complex [2]: observed the formation of the Cas9-sgRNA-DNA ternary complex; also recorded: detected in lane 5
